Where “and” joins values, the source holds several entries; their conditions need not be identical. Equal entries are not always repeated.
Assays:
Test in all cases: EMSA
Conditions in all cases: EMSA: 1 nM 6-FAM DNA, 0-1.28 uM protein, 1 h at 37 C, binding buffer not stated; 6% PAGE in 40 mM Tris pH 7.6, 20 mM acetic acid, 1 mM EDTA at 4 C (effectors …)
[1] = test system: BenM-DBDCatM(F293Y,H160R)-His (Acinetobacter baylyi ADP1)
[2] = test system: CatM-His (Acinetobacter baylyi ADP1)
[3] = test system: CatM(I18F,K38N)-His (Acinetobacter baylyi ADP1)
[4] = test system: BenM-DBDCatM-His (Acinetobacter baylyi ADP1)

Substance: PbenA operator-promoter
- Kd [1]: 1 nM and 4 nM (2×) and 2 nM
- Kd [2]: 70 nM and 71 nM (2×) and 67 nM
- Kd [3]: 42 nM and 32 nM (2×) and 34 nM

Substance: PcatB operator-promoter
- Kd [1]: 3 nM
- Kd [2]: 11 nM and 19 nM (2×) and 10 nM
- Kd [4]: 1 nM and 3 nM (2×) and 4 nM
